Assay results taken from PMC4702109, “Osmotic stress induces the phosphorylation of WNK4 Ser575 via the p38MAPK-MK pathway” (Scientific Reports, 2016).
One block for each binder: values may come before it. Where no end group is shown, it is not given here. [ ]: non-standard residue; d: D form. pS = N[C@@H](COP(=O)(O)O)C(=O)O

Target: T1, GST-hKLHL3 (290–587) (human, UniProt Q9UH77 290-587)
T1 construct: Kelch-like protein 3 (KLHL3), human, residues 290-587; End of the tag read from the construct's name; also called GST-KLHL3 (290–587); GST-KLHL3; source: E. coli BL21, purified (glutathione-Sepharose column, eluted with glutathione); not shown: GST, N-terminal, kept
T1 sequence (looked up): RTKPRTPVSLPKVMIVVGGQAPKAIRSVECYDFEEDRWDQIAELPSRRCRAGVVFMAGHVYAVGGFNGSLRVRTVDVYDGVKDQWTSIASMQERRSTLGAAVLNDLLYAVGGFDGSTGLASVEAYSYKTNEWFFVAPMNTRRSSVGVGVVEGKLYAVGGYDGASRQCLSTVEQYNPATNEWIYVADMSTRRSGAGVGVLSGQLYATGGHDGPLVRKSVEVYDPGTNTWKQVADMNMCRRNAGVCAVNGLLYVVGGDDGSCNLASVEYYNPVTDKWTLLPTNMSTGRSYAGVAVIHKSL
Assay: pull-down; FLAG-tagged synthetic WNK4 (557–580) peptides (1 μg) held on anti-FLAG antibody beads; GST-hKLHL3 (290–587) incubated 6 hours, washed with IP lysis buffer; immunoblot; two amounts of GST-KLHL3 (3-fold apart)
Conditions: both partners purified

binding result: binds
B1: WNK4 (557–580)-pS575 peptide (peptide, UniProt Q96J92 557-580, looked up)
peptide: EPEEPEADQHQPFLFRHA[pS]YSSTT
modifications: also: FLAG tag, position not given here
notes: Held on anti-FLAG antibody beads; also called peptide phosphorylated at Ser575; source: synthetic peptide (bought: Eurofins Genomics)

binding result: binds
B2: WNK4 (557–580)-WT peptide (peptide, UniProt Q96J92 557-580, looked up)
peptide: EPEEPEADQHQPFLFRHASYSSTT
notes: Held on anti-FLAG antibody beads; also called unphosphorylated peptide; source: synthetic peptide (bought: Eurofins Genomics)
